Test results from patent US20240287204A1 (published 2024).

Molecular target: T1, human MerTK on cells (human, UniProt Q12866 21-999)
T1 sequence: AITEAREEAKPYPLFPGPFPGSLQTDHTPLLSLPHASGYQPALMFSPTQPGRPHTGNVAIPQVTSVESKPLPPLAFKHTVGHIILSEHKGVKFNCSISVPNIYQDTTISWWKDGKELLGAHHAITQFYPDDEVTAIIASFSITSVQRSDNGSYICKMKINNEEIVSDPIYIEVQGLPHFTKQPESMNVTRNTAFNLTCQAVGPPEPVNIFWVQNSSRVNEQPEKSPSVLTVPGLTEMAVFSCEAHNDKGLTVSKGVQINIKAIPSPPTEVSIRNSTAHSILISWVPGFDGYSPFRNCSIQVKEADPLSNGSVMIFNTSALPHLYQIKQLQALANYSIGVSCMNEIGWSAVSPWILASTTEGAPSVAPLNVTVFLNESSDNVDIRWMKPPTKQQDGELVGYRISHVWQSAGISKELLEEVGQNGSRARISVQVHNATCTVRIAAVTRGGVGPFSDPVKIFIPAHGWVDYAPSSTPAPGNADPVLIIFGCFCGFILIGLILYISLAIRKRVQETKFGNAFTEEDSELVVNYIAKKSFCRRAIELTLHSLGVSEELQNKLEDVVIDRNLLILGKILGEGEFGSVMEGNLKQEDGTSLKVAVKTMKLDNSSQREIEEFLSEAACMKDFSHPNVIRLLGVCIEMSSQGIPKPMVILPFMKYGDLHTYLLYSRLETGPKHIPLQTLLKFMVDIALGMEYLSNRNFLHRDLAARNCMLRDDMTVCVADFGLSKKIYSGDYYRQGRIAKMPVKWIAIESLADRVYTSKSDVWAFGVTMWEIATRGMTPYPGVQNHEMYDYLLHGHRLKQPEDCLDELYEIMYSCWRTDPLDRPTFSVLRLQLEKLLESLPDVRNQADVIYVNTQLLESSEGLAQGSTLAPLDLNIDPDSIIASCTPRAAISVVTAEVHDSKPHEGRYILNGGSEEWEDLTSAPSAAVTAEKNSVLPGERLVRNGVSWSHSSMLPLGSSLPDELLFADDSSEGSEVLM
Test: cell-based or functional assay

B1: MTK-22 (antibody, human IgG1, V domains shown)
VH: QVQLQQPGADLVEPGASVKLSCKASGYTFTSYWMHWVKQRPGQGLEWIGEIDPSDSSSNYNQKFKGKATLTVDKSSSTAYMHLNSLTSEDSAVYYCARRYYYGSLYFDNWGQGTTLTVSS
VL: DVVMTQSHKFMSTSVGDRVSITCKASQDVGTAIAWYQQKPGQSPKLLIYWASTRHTGVPDRFTGSRSGTVFTLTISNVQSEDLADYFCQQYTSYPLTFGSGTKLEIK
IC50 of blocking of Gas6-mediated pAKT activity in human M2c macrophages (HTRF): 0.531 nM
